{
  "source": "patent US12128089B2",
  "about": "(Slayback Pharma LLC, priority 2022, dated 2024)",
  "origin": "cited, not measured here",
  "key": {"[1]": {"conditions": "neutral aqueous solution"}, "[2]": {"conditions": "dilute aqueous solutions, random coil conformation"}, "[3]": {"test": "not given", "remark": "listed apart in the source"}, "[4]": {"test": "not given", "remark": "listed apart in the source"}},
  "note": "Where two headings read alike, the source gives them in different places.",
  "data": [
    {"substance": "Glucagon", "values": [
      {"measurement": "Solubility in aqueous solutions", "setting": "pH less than 3 or greater than 9", "value": "> 10000", "unit": "µg/mL"},
      {"measurement": "Solubility in aqueous solutions", "setting": "pH range of 4 to 8", "value": "< 100", "unit": "µg/mL"},
      {"measurement": "Precipitation after preparation", "setting": "[1]", "value": "precipitates within an hour of preparation"},
      {"measurement": "α-helix at the C-terminal end", "setting": "[2]", "value": 15, "unit": "%"},
      {"measurement": "Half-life in plasma", "setting": "[3]", "value": "3 to 6", "unit": "min"},
      {"measurement": "Onset of action post injection", "setting": "[4]", "value": "5 to 20", "unit": "min"}
    ]}
  ]
}
